Assay results as given in PMC4072508, “Genome-Wide Prediction and Validation of Peptides That Bind Human Prosurvival Bcl-2 Proteins” (PLoS Computational Biology, 2014).

Biological target: T1, Mcl-1, Q07820
T1 chain: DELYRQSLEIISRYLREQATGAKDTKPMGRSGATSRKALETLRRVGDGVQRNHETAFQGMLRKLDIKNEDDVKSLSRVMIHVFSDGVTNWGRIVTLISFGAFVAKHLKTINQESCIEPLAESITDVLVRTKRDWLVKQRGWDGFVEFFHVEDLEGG
Assay: peptide SPOT array, c-Myc-tagged receptor at 1 uM or 100 nM, anti-c-Myc-Cy3

Row | Binder | SPOT signal as a fraction of Bim BH3's signal on the same receptor and array
1 | GSGLHGWAFTLKQFLEMYVAKFAAKG [EEF2] | 0.12
2 | ELQAPATVQSLGLLGDRLCVGAAGGF [CDC42BPG] | 0.01
3 | AFTEREASEIMKSIGEAIQYLHSINI [MAPKAPK2] | 0.02
4 | KKCQDMIMTELTNALDDVVVFYNDKA | 0.02
5 | ERAISCMGQIICNLLDNLGSDLPNTL [CAND1] | 0.01
6 | SKFVILSAHKLVFILDTLSRQAKAAD [BCAR1] | 0.02
7 | RIEMWISILELNELLEYAAVELHQAK | 0.03
8 | QQMHHNAATAMAQRLDMLRGLSPRES [NCOR2] | 0.08
9 | LSPGRSVTAGIIIVLDEILKGHTQDT [FLAD1] | 0.01
10 | SKFVILSAHKDVFIGDTLTRQVTAQD [NEDD9] | 0.02
11 | KKCQDMIMTELTNAGDDVVVFYNDKA | 0.01
12 | GLTWDPVGKYIASQADDRSLKVWRTL [HIRA] | 0.94
13 | HGTSSRIGSSMKSVLEVMAIGRTFEE [CPS1] | 0.02
14 | SQGDKRVAFFMRKGADCLSKWVGESE | 0.06
15 | NKSLTTLGLVDSSLADQAAGKGKSKF | 0.19
16 | RLAHEHHCLRIKILLDCYYCVSGLPE [ADCY8] | 0.03
17 | RDPQGWVAGNDSARGDGAAGFTLPGF [MST1R] | 0.02
18 | LRVSTKIGSCMKSVGEVMGIGRSFEE [CAD] | 0.04
19 | SQGDKRVAFFDRKGADCLSKWVGESE | 0.02
20 | KNIAGALAFWMANASELLNFIKQDRD [MLLT4] | 0.03
21 | VDFYQPTCIVLQCGLDSLGCDRLGCF [HDAC3] | 0.01
22 | DVGTGAGLLEIKKIGDEYFTFITDCK [CCT3] | 0.01
23 | PSLSKELTSSLAGVGDVSFDSDSQFP [CRTC1] | 0.01
24 | NKSLTTLGLVISSLLDQAAGKGKSKF | 0.18

Continued, values first:

Row | SPOT signal as a fraction of Bim BH3's signal on the same receptor and array | Binder
25 | 0.04 | CDLLGAKGKDDLYIGDHIFGDILKSK [NT5C2]
26 | 0.01 | IGFFIAFGIADGKMGDQAKLMVDFFN
27 | 0.01 | IQQDLGCGASLGVISDNLLVTGGQGC [SCAP]
28 | 0.01 | SALETQVAAAVQALADDYLAQLSLEP [TRO]
29 | 0.03 | AICIEEIGVWMKMYLDAFLNDSYLKY
30 | 0.01 | SPYVFNGGTIDAIAGEDFAIVASDTR [PSMB1]
31 | 0.02 | NKRHRPIGIGDQGLADAFILMRYPFE [RRM1]
32 | 0.01 | DSLAKFAGRKDKDCGEDLLVEISEVL [PCM1]
33 | 0.01 | CALIAGATLHVAWLLDSQVILVQQGQ [PPM1F]
34 | 0.02 | DLSAVTLSRELQAMLEQLAENYHNTW [RYR1]
35 | 0.12 | CILNSFYGYVMRKGARWYSMEMAGIV [POLE]
36 | 0.03 | AICIEEIGVWDKMYSDAFLNDSYLKY
37 | 0.03 | IGFFIAFGIAMGKMLDQAKLMVDFFN
38 | 0.01 | RCELQICGLAMADAGEYLCVCGQERT [OBSCN]
39 | 0.02 | SHALICISHWILGIGDRHLNNFMVAM [PRKDC]
40 | 0.02 | VLSRIEAGRSDKSVADEFGISKSTFY [TIGD7_3eA]
41 | 0.02 | QLSKPGAALYDQSIGEGFKEAVQYVL [SOS1]

biological target: Bcl-xL, Q07817; assay: as above
Sequence (Q07817 1-209): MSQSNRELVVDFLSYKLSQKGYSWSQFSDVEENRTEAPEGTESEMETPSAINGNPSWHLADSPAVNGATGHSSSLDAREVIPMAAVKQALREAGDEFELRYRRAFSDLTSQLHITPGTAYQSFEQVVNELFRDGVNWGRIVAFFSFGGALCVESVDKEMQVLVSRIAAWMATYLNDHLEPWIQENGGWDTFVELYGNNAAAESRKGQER

Row | Binder | SPOT signal as a fraction of Bim BH3's signal on the same receptor and array
42 | GSGLHGWAFTLKQFLEMYVAKFAAKG [EEF2] | 0.25
43 | ELQAPATVQSLGLLGDRLCVGAAGGF [CDC42BPG] | 0.01
44 | AFTEREASEIMKSIGEAIQYLHSINI [MAPKAPK2] | 0.02
45 | KKCQDMIMTELTNALDDVVVFYNDKA | 0.02
46 | ERAISCMGQIICNLLDNLGSDLPNTL [CAND1] | 0.02
47 | SKFVILSAHKLVFILDTLSRQAKAAD [BCAR1] | 0.07
48 | RIEMWISILELNELLEYAAVELHQAK | 0.02
49 | QQMHHNAATAMAQRLDMLRGLSPRES [NCOR2] | 0.13
50 | LSPGRSVTAGIIIVLDEILKGHTQDT [FLAD1] | 0.01
51 | SKFVILSAHKDVFIGDTLTRQVTAQD [NEDD9] | 0.02
52 | KKCQDMIMTELTNAGDDVVVFYNDKA | 0.02
53 | GLTWDPVGKYIASQADDRSLKVWRTL [HIRA] | 0.81
54 | HGTSSRIGSSMKSVLEVMAIGRTFEE [CPS1] | 0.02
55 | SQGDKRVAFFMRKGADCLSKWVGESE | 0.13
56 | NKSLTTLGLVDSSLADQAAGKGKSKF | 0.29
57 | RLAHEHHCLRIKILLDCYYCVSGLPE [ADCY8] | 0.02
58 | RDPQGWVAGNDSARGDGAAGFTLPGF [MST1R] | 0.01
59 | LRVSTKIGSCMKSVGEVMGIGRSFEE [CAD] | 0.05
60 | SQGDKRVAFFDRKGADCLSKWVGESE | 0.02
61 | KNIAGALAFWMANASELLNFIKQDRD [MLLT4] | 0.03
62 | VDFYQPTCIVLQCGLDSLGCDRLGCF [HDAC3] | 0.01
63 | DVGTGAGLLEIKKIGDEYFTFITDCK [CCT3] | 0.01
64 | PSLSKELTSSLAGVGDVSFDSDSQFP [CRTC1] | 0.01
65 | NKSLTTLGLVISSLLDQAAGKGKSKF | 0.26

Now from value to binder:

Row | SPOT signal as a fraction of Bim BH3's signal on the same receptor and array | Binder
66 | 0.02 | CDLLGAKGKDDLYIGDHIFGDILKSK [NT5C2]
67 | 0.02 | IGFFIAFGIADGKMGDQAKLMVDFFN
68 | 0.02 | IQQDLGCGASLGVISDNLLVTGGQGC [SCAP]
69 | 0.01 | SALETQVAAAVQALADDYLAQLSLEP [TRO]
70 | 0.02 | AICIEEIGVWMKMYLDAFLNDSYLKY
71 | 0.01 | SPYVFNGGTIDAIAGEDFAIVASDTR [PSMB1]
72 | 0.02 | NKRHRPIGIGDQGLADAFILMRYPFE [RRM1]
73 | 0.01 | DSLAKFAGRKDKDCGEDLLVEISEVL [PCM1]
74 | 0.02 | CALIAGATLHVAWLLDSQVILVQQGQ [PPM1F]
75 | 0.02 | DLSAVTLSRELQAMLEQLAENYHNTW [RYR1]
76 | 0.18 | CILNSFYGYVMRKGARWYSMEMAGIV [POLE]
77 | 0.05 | AICIEEIGVWDKMYSDAFLNDSYLKY
78 | 0.03 | IGFFIAFGIAMGKMLDQAKLMVDFFN
79 | 0.01 | RCELQICGLAMADAGEYLCVCGQERT [OBSCN]
80 | 0.02 | SHALICISHWILGIGDRHLNNFMVAM [PRKDC]
81 | 0.02 | VLSRIEAGRSDKSVADEFGISKSTFY [TIGD7_3eA]
82 | 0.02 | QLSKPGAALYDQSIGEGFKEAVQYVL [SOS1]
